Earlier results in publication PMC5742237.
pKd: −log10 of the molar value. Read-outs that look alike come from different tables or passages of the source.

Experiments:
[1] = biological target: Transhydrogenase domain I dimer domain I (Rhodospirillum rubrum) (UniProt Q2RSB2)
[2] = biological target: Transhydrogenase domain I dimer domain I (Rhodospirillum rubrum) (UniProt Q2RSB2); remark: listed apart in the source

Sequence of UniProt Q2RSB2 (Q2RSB2 whole entry, the tested form may be a part): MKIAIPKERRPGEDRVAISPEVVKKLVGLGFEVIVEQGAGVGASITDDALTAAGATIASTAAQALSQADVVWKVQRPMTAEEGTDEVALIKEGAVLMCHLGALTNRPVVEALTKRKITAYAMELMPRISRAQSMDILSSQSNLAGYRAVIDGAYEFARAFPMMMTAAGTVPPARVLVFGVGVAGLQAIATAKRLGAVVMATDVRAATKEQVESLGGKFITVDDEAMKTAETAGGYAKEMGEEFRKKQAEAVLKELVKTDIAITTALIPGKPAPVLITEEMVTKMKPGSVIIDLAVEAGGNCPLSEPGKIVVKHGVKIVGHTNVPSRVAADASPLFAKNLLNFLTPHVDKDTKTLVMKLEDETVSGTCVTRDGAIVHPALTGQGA

| pKd [1] | pKd [2] | Substance |
| --- | --- | --- |
| 5.00 | – | Transhydrogenase domain III (second) domain III (from UniProt Q2RSB4) |
| – | > 7.22 | Transhydrogenase domain III domain III (from UniProt Q2RSB4) |
